{"source": "paper PMC3079738", "target": "human CD81 expressed on transfected CHO cells (human) (UniProt P60033)", "sequence (P60033 whole entry, the tested form may be a part)": "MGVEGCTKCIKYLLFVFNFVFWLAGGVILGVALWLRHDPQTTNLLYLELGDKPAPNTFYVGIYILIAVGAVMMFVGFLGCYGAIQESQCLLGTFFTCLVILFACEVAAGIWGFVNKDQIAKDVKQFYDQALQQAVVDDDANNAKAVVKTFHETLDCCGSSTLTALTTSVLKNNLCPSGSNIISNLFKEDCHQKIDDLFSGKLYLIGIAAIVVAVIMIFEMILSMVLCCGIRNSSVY", "test": "flow cytometry on cells; CHO cells transfected with human CD81 plasmid (or naive), 5x10^5 cells incubated with crude 293T cell extract containing E2 for 1 h at room temperature in PBS, 2% fetal calf serum, 0.05% NaN3; detected with goat anti-E2 and FITC anti-goat IgG; MFI as percent of wild type E2 on CHO-CD81", "data": [{"substance": "E2-W529/A, mutant of the carboxyl terminal truncated HCV E2 protein (aa 364-661), strain H77 (from UniProt P27958 364-661) (domain or fragment)", "values": [{"measurement": "CD81 binding activity as percent of the wild type protein (MFI)", "result": "< 5", "unit": "%"}]}]}
